Measurements from PMC10009755 (Journal of Medicinal Chemistry, 2023).

Target: T1, wild-type ubiquitin (UniProt P0CG48 1-76)
T1 construct: ubiquitin, the cut product of the ubiquitin precursors; called 'wild-type ubiquitin'
Assay: SPR; USP21 immobilised by amine coupling on a CM5 chip; Biacore S200, A-B-A injection; 1 uM compound 18 as analyte A, then ubiquitin titrated in 1:2 dilutions from 25 uM; 15 °C
Conditions: both partners purified

binding result: binds
B1: human USP21 (Q9UK80, 209-563) (domain or fragment, UniProt Q9UK80 209-563, looked up)
chain: SGHVGLRNLGNTCFLNAVLQCLSSTRPLRDFCLRRDFRQEVPGGGRAQELTEAFADVIGALWHPDSCEAVNPTRFRAVFQKYVPSFSGYSQQDAQEFLKLLMERLHLEINRRGRRAPPILANGPVPSPPRRGGALLEEPELSDDDRANLMWKRYLEREDSKIVDLFVGQLKSCLKCQACGYRSTTFEVFCDLSLPIPKKGFAGGKVSLRDCFNLFTKEEELESENAPVCDRCRQKTRSTKKLTVQRFPRILVLHLNRFSASRGSIKKSSVGVDFPLQRLSLGDFASDKAGSPVYQLYALCNHSGSVHYGHYTALCRCQTGWHVYNDSRVSPVSENQVASSEGYVLFYQLMQEPPR
notes: cDNA optimized for expression in E. coli; The His tag is thrombin-cleavable; also called recombinant USP21; source: E. coli BL21(DE3), purified (Ni-NTA, MonoS cation exchange, SEC)
